This experiment addresses T1, His-FliM (E. coli W3110, UniProt P06974 1-334).
T1 sequence (looked up): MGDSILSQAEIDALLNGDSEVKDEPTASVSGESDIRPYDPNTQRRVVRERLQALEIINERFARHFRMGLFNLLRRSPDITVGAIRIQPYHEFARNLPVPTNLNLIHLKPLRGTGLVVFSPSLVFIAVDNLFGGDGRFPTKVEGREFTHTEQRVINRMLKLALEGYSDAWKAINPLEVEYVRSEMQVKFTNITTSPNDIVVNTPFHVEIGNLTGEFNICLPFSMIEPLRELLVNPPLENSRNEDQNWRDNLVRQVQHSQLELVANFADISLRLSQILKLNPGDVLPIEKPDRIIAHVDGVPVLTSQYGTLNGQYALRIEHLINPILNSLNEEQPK
Put plainly: SPR. A general note: SPR reads the build-up and loss of mass on a sensor chip optically.

What is called Kd is the concentration at which binding is half-saturated.

B1: CheY-His (natural protein, E. coli W3110)
chain: ADKELKFLVVDDFSTMRRIVRNLLKELGFNNVEEAEDGVDALNKLQAGGYGFVISDWNMPNMDGLELLKTIRADGAMSALPVLMVTAEAKKENIIAAAQAGASGYVVKPFTAATLEEKLNKIFEKLGM
B1 had a Kd of 1.63 µM.

B2: AcCheY-His (natural protein, E. coli W3110)
chain: ADKELKFLVVDDFSTMRRIVRNLLKELGFNNVEEAEDGVDALNKLQAGGYGFVISDWNMPNMDGLELLKTIRADGAMSALPVLMVTAEAKKENIIAAAQAGASGYVVKPFTAATLEEKLNKIFEKLGM
modifications: acetyl-lysine at 91 and 109 (found by LC-MS/MS)
As for B2, the Kd stood at 9.4 µM.

Source of the values: publication PMC2883070 (Molecular Microbiology, 2010).
